Experiments:
[1] = biological target: CD71 on primary hepatocytes; test: cell-based or functional assay
[2] = biological target: recombinant mouse CD71 (Sino Biological Inc., Beijing, China) (mouse) (UniProt Q62351); test: plate binding to coated recombinant mouse CD71; EC50 of the conjugate against that of clone R17
[3] = biological target: recombinant mouse CD71 (Sino Biological Inc., Beijing, China) (mouse) (UniProt Q62351); test: plate binding to coated recombinant mouse CD71, RiboGreen fluorescence detection of the conjugate's siRNA
[4] = biological target: recombinant mouse CD71 (Sino Biological Inc., Beijing, China) (mouse) (UniProt Q62351); test: plate binding to coated recombinant mouse CD71, Alexa Fluor 488 labeled secondary antibody, fluorescence

UniProt Q62351, sequence (Q62351 89-763 limits assumed): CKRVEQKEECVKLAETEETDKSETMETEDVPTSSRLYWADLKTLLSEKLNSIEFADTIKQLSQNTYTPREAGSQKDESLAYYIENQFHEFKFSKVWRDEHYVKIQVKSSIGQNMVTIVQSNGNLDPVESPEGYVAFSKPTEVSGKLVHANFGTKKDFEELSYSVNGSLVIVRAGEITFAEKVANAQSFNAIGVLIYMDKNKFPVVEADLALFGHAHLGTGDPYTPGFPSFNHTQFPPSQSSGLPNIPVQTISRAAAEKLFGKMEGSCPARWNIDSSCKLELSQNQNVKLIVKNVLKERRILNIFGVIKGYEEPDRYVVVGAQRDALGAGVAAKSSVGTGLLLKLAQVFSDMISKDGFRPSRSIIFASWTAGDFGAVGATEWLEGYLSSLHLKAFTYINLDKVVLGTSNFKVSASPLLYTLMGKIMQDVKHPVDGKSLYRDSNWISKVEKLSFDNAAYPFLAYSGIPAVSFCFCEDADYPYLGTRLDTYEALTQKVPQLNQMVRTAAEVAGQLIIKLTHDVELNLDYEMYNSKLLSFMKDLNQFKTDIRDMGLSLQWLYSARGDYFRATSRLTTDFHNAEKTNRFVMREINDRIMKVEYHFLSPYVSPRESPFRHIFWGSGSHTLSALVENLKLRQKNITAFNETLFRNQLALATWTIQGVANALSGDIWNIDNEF

clone R17 Fab'-siApoB conjugate linked with the maleimide linker
EC50 in inhibiting of ApoB gene expression (primary hepatocytes, quantitative PCR) [1]: 11 nM | silencing of ApoB at 900 nM (primary hepatocytes, quantitative PCR) [1]: 46%

clone R17 Fab'-siHPRT conjugate linked with the maleimide linker
fold difference of EC50 between clone R17 and the conjugate [2]: 20 fold | EC50 [3]: 29 nM

anti-CD71 antibody (clone R17 217.1.3) purchased from Bio X Cell
EC50 [4]: 1.5 nM
